A short description of this data set: self-splicing fitness, log relative to wild type (ln ratio); higher = more splicing; Tetrahymena group I intron in knt gene, E. coli kanamycin selection, DiMSum; sequences stand for … in CUCUCU…GGAGGGAAAAGUUAUCAGGCAUGCACCUGGUAGCUAGUCUUUAAACCAAUAGAUUGCAUCGGUUUAAAAGGCAAGACCGUCAAAUUGCGGGAAAGGGGUCAACAGCCGUUCAGUACCAAGUCUCAGGGGAAACUUUGAGAUGGCCUUGCAAAGGGUAUGGUAAUAAGCUGACGGACAUGGUCCUAACCACGCAGCCAAGUCCUAAGUCAACAGAUCUUCUGUUGAUAUGGAUGCAGUUCACAGACUAAAUGUCGGUCGGGGAAGAUGUAUUCUUCUCAUAAGAUAUAGUCGGACCUCUCCUUAAUGGGAGCUAGCGGAUGAAGUGAUGCAACACUGGAGCCGCUGGGAACUAAUUUGUAUGCGAAAGUAUAUUGAUUAGUUUUGGAGUACUCGUGGUCG
The procedure, abridged: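 A randomised library covering all eight P1ex-region intron nucleotides was built with the intron in the knt kanamycin-resistance gene on pET-22b(+) and held in E. coli BL21(DE3). Cells were grown overnight at 37°C or 30°C on LB agar, with or without 25 μg/mL kanamycin, plus 100 μg/mL carbenicillin, 50 μM IPTG and 0.2% rhamnose, and pooled colonies were amplicon-sequenced on an Illumina HiSeq 2500. DiMSum fitness is the error-weighted combination of wild-type-normalised replicate fold changes, kanamycin versus none.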

± gives the uncertainty stated by the source.

This is an account of results in the supplement of paper PMC7877785.

As to CGUCAGCAAUAUUACGCAUU, the “self-splicing fitness (ln)” value was -3.62 ± 0.16 (30 °C) and -2.31 ± 0.16 (37 °C). For CGUCAGCAAUAUUACGCCAC, the “self-splicing fitness (ln)” value (37 °C) was -1.01 ± 0.45.

Regarding CGUCAGCAAUAUUACGCCGC, the “self-splicing fitness (ln)” value was -2.76 ± 0.32 (30 °C) and -1.05 ± 0.27 (37 °C). For CGUCAGCAAUAUUACGCUAC the same measures were -3.74 ± 0.43 and -0.956 ± 0.23.

Turning to CGUCAGCAAUAUUACGCUCA, the “self-splicing fitness (ln)” value is, setting by setting: (30 °C) -1.1 ± 0.15; (37 °C) 0.0237 ± 0.12.

Turning to CGUCAGCAAUAUUACGCUUC, the “self-splicing fitness (ln)” value by setting is: (30 °C) -3.46 ± 0.36; (37 °C) -3.11 ± 0.31. For CGUCAGCAAUAUUACGCUUG, in that order: -1.03 ± 0.098 and 0.41 ± 0.12. For CGUCAGCAAUAUUACGGAUC the same measures were -1.12 ± 0.051 and -0.0121 ± 0.069. For CGUCAGCAAUAUUACGGCGA, in that order: -1.88 ± 0.17 and -1.57 ± 0.21. Consider CGUCAGCAAUAUUACGGCGG, for which the “self-splicing fitness (ln)” value by setting is: (30 °C) -1.01 ± 0.082; (37 °C) 0.0141 ± 0.11. Turning to CGUCAGCAAUAUUACGGCUC, the “self-splicing fitness (ln)” value by setting is: (30 °C) -1.43 ± 0.081; (37 °C) 0.225 ± 0.088.

As for CGUCAGCAAUAUUACGGGCG, the “self-splicing fitness (ln)” value was -3.15 ± 0.16 (30 °C) and -2.8 ± 0.21 (37 °C).

In the case of CGUCAGCAAUAUUACGGGUA, the “self-splicing fitness (ln)” value was -1.81 ± 0.14 (30 °C) and -1.06 ± 0.1 (37 °C). Consider CGUCAGCAAUAUUACGGUAG, for which the “self-splicing fitness (ln)” value by setting is: (30 °C) -0.184 ± 0.059; (37 °C) 0.0634 ± 0.064.

Take CGUCAGCAAUAUUACGGUUA: the “self-splicing fitness (ln)” value is, setting by setting: (30 °C) -2.25 ± 0.12; (37 °C) -0.874 ± 0.091. For the sequence CGUCAGCAAUAUUACGUGAA, the “self-splicing fitness (ln)” value was -2.11 ± 0.087 (30 °C) and -0.281 ± 0.092 (37 °C).

With CGUCAGCAAUAUUACGUUAU, the “self-splicing fitness (ln)” value reads like this: (30 °C) -2.95 ± 0.14; (37 °C) -2.83 ± 0.17. For CGUGAGCAAUAUUACGAAUG the same measures were -1.41 ± 0.16 and -0.913 ± 0.13. Take CGUGAGCAAUAUUACGACUU: the “self-splicing fitness (ln)” value is -2.96 ± 0.16 (30 °C) and -1.71 ± 0.19 (37 °C).

As for CGUGAGCAAUAUUACGAGAC, for the setting “37 °C”, the “self-splicing fitness (ln)” value is -0.958 ± 0.35. Take CGUGAGCAAUAUUACGAGAG: the “self-splicing fitness (ln)” value is, setting by setting: (30 °C) -2.29 ± 0.25; (37 °C) -2.64 ± 0.36.

CGUGAGCAAUAUUACGAGCA: the “self-splicing fitness (ln)” value reads like this: (30 °C) -1.58 ± 0.085; (37 °C) -0.55 ± 0.11. On to CGUGAGCAAUAUUACGAGGU, for which the “self-splicing fitness (ln)” value reads like this: (30 °C) -0.426 ± 0.29; (37 °C) -1.35 ± 0.31.

For the sequence CGUGAGCAAUAUUACGAUUC, the “self-splicing fitness (ln)” value reads like this: (30 °C) -3.25 ± 0.23; (37 °C) -2.58 ± 0.44. Regarding CGUGAGCAAUAUUACGAUUG, the “self-splicing fitness (ln)” value is -0.949 ± 0.09 (30 °C) and -0.662 ± 0.13 (37 °C). For CGUGAGCAAUAUUACGCAAC, in that order: -2.77 ± 0.36 and -2.18 ± 0.33.

On to CGUGAGCAAUAUUACGCCCU, for which the “self-splicing fitness (ln)” value was -3.26 ± 0.23 (30 °C) and -1.98 ± 0.24 (37 °C). On to CGUGAGCAAUAUUACGCCUC, for which the “self-splicing fitness (ln)” value by setting is: (30 °C) -2.12 ± 0.31; (37 °C) -1.07 ± 0.4. For CGUGAGCAAUAUUACGCCUG, in that order: -1.76 ± 0.26 and -0.852 ± 0.36.

Consider CGUGAGCAAUAUUACGCUAA, for which the “self-splicing fitness (ln)” value (37 °C) is -1.26 ± 0.48. Take CGUGAGCAAUAUUACGGAGU: the “self-splicing fitness (ln)” value was -3.12 ± 0.23 (30 °C) and -1.14 ± 0.4 (37 °C). For CGUGAGCAAUAUUACGGCAU, the “self-splicing fitness (ln)” value runs as follows: (30 °C) -2.59 ± 0.11; (37 °C) -2.28 ± 0.16. For the sequence CGUGAGCAAUAUUACGGCUC, the “self-splicing fitness (ln)” value (30 °C) is -3.79 ± 0.42 and the “self-splicing fitness (ln)” value (37 °C) is -1.23 ± 0.27. For CGUGAGCAAUAUUACGGGGC, in that order: -3.54 ± 0.28 and -2.03 ± 0.2. CGUGAGCAAUAUUACGGUCA: the “self-splicing fitness (ln)” value (30 °C) is -3.84 ± 0.25 and the “self-splicing fitness (ln)” value (37 °C) was -2.12 ± 0.16.

In the case of CGUGAGCAAUAUUACGGUUU, the “self-splicing fitness (ln)” value is, setting by setting: (30 °C) -3.81 ± 0.18; (37 °C) -3.28 ± 0.22.

Regarding CGUGAGCAAUAUUACGUAGC, the “self-splicing fitness (ln)” value by setting is: (30 °C) -1.15 ± 0.34; (37 °C) -1.28 ± 0.35. In the case of CGUGAGCAAUAUUACGUUAU, the “self-splicing fitness (ln)” value (30 °C) was -4.44 ± 0.36 and the “self-splicing fitness (ln)” value (37 °C) was -2.38 ± 0.18. For CGUUAGCAAUAUUACGAAGU the same measures were -2.41 ± 0.34 and -1.29 ± 0.3. For CGUUAGCAAUAUUACGAGCU, in that order: -1.25 ± 0.064 and -0.739 ± 0.082.

Consider CGUUAGCAAUAUUACGAGUG, for which the “self-splicing fitness (ln)” value runs as follows: (30 °C) -1.18 ± 0.078; (37 °C) 0.184 ± 0.094. In the case of CGUUAGCAAUAUUACGAGUU, the “self-splicing fitness (ln)” value reads like this: (30 °C) -2.98 ± 0.36; (37 °C) -2.27 ± 0.45.

As for CGUUAGCAAUAUUACGAUUC, the “self-splicing fitness (ln)” value is, setting by setting: (30 °C) -3.09 ± 0.19; (37 °C) -1.68 ± 0.18. For CGUUAGCAAUAUUACGAUUU the same measures were -2.51 ± 0.27 and -1.66 ± 0.25. Turning to CGUUAGCAAUAUUACGCACC, the “self-splicing fitness (ln)” value (30 °C) is -1.94 ± 0.35 and the “self-splicing fitness (ln)” value (37 °C) was -1.79 ± 0.48. In the case of CGUUAGCAAUAUUACGCACG, the “self-splicing fitness (ln)” value (30 °C) is -1.99 ± 0.31. As to CGUUAGCAAUAUUACGCCCA, the “self-splicing fitness (ln)” value by setting is: (30 °C) -1.43 ± 0.16; (37 °C) 0.14 ± 0.18. On to CGUUAGCAAUAUUACGCCGU, for which, under “37 °C”, the “self-splicing fitness (ln)” value is -0.993 ± 0.44. On to CGUUAGCAAUAUUACGCGAU, for which the “self-splicing fitness (ln)” value runs as follows: (30 °C) -2.89 ± 0.16; (37 °C) -3.12 ± 0.32. CGUUAGCAAUAUUACGCUAA: under “37 °C”, the “self-splicing fitness (ln)” value worked out at 0.0733 ± 0.29.

CGUUAGCAAUAUUACGGAAA: the “self-splicing fitness (ln)” value runs as follows: (30 °C) -1.93 ± 0.38; (37 °C) -2.11 ± 0.31. For CGUUAGCAAUAUUACGGACU the same measures were -0.292 ± 0.08 and 0.16 ± 0.11. On to CGUUAGCAAUAUUACGGCAU, for which the “self-splicing fitness (ln)” value is -2.01 ± 0.11 (30 °C) and -1.13 ± 0.12 (37 °C). Consider CGUUAGCAAUAUUACGGCUC, for which the “self-splicing fitness (ln)” value (30 °C) is -1.75 ± 0.33 and the “self-splicing fitness (ln)” value (37 °C) was found to be 0.277 ± 0.22. For CGUUAGCAAUAUUACGGGAA, in that order: -2.14 ± 0.17 and -2.36 ± 0.28. On to CGUUAGCAAUAUUACGUGCA, for which the “self-splicing fitness (ln)” value is -1.38 ± 0.11 (30 °C) and -0.0413 ± 0.11 (37 °C). Turning to CGUUAGCAAUAUUACGUGGG, the “self-splicing fitness (ln)” value runs as follows: (30 °C) -1.39 ± 0.12; (37 °C) -1.79 ± 0.16.

In the case of CGUUAGCAAUAUUACGUUAA, the “self-splicing fitness (ln)” value was -3.44 ± 0.23 (30 °C) and -3.24 ± 0.28 (37 °C). In the case of CGUUAGCAAUAUUACGUUAU, the “self-splicing fitness (ln)” value (30 °C) was -2.76 ± 0.34 and the “self-splicing fitness (ln)” value (37 °C) was -2.18 ± 0.37. For CUAAAGCAAUAUUACGAAAU, the “self-splicing fitness (ln)” value by setting is: (30 °C) -3.55 ± 0.28; (37 °C) -2.01 ± 0.46. For CUAAAGCAAUAUUACGAGCG, in that order: 0.136 ± 0.057 and 0.289 ± 0.073. For CUAAAGCAAUAUUACGAGCU, in that order: -4.12 ± 0.26 and -2.82 ± 0.38. For CUAAAGCAAUAUUACGAUUG, in that order: -0.545 ± 0.053 and -0.596 ± 0.06.

Take CUAAAGCAAUAUUACGCCCG: the “self-splicing fitness (ln)” value by setting is: (30 °C) 0.465 ± 0.11; (37 °C) -0.0373 ± 0.12. For CUAAAGCAAUAUUACGCCGA the same measures were -3.46 ± 0.24 and -2.42 ± 0.25. CUAAAGCAAUAUUACGCCUA: the “self-splicing fitness (ln)” value (30 °C) is -3.27 ± 0.23. For CUAAAGCAAUAUUACGCGUU, the “self-splicing fitness (ln)” value reads like this: (30 °C) -3.08 ± 0.13; (37 °C) -2.67 ± 0.27. Turning to CUAAAGCAAUAUUACGCUCU, the “self-splicing fitness (ln)” value (30 °C) was -2.94 ± 0.41. As for CUAAAGCAAUAUUACGGAGA, the “self-splicing fitness (ln)” value reads like this: (30 °C) -2.83 ± 0.16; (37 °C) -2.79 ± 0.29. For CUAAAGCAAUAUUACGGCCA, in that order: -3.21 ± 0.31 and -2.08 ± 0.4. On to CUAAAGCAAUAUUACGGCCG, for which the “self-splicing fitness (ln)” value is, setting by setting: (30 °C) 0.821 ± 0.14; (37 °C) 0.575 ± 0.21. As for CUAAAGCAAUAUUACGGCUG, the “self-splicing fitness (ln)” value reads like this: (30 °C) 0.0357 ± 0.069; (37 °C) -0.0492 ± 0.089.

Take CUAAAGCAAUAUUACGUACC: the “self-splicing fitness (ln)” value (37 °C) is -2.03 ± 0.46. On to CUAAAGCAAUAUUACGUCGG, for which the “self-splicing fitness (ln)” value is -0.261 ± 0.061 (30 °C) and -0.189 ± 0.078 (37 °C). Regarding CUAAAGCAAUAUUACGUCUA, the “self-splicing fitness (ln)” value (30 °C) was -4.21 ± 0.27 and the “self-splicing fitness (ln)” value (37 °C) is -2.2 ± 0.22.

On to CUAAAGCAAUAUUACGUGUG, for which the “self-splicing fitness (ln)” value is, setting by setting: (30 °C) -0.323 ± 0.049; (37 °C) 0.387 ± 0.06. For CUAAAGCAAUAUUACGUUCU, the “self-splicing fitness (ln)” value is -4.08 ± 0.24 (30 °C) and -3.07 ± 0.26 (37 °C). For CUACAGCAAUAUUACGAAGC, in that order: -3.61 ± 0.24 and -2.85 ± 0.25.
